Tested on: MS2 coat protein
Assay: apparent KD of MS2 coat protein; higher = weaker reporter binding
Conditions: Eterna round: R107
In short: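 For every design, apparent KD is the median of normalised binding-curve fits from its clusters. The RNA switches were transcribed on-chip from Illumina sequencing clusters and titrated with SNAP-549-labelled MS2 coat protein (twofold steps, 0.7 or 1.5 nM to 3 µM; 0.8–1.5 h to 10–20 min per step). Titrations used 100 mM Tris-HCl pH 7.5, 80 mM KCl, 4 mM MgCl2, without or with constant ligand.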

[1] = input ligand: theophylline 20 uM
[2] = input ligand: theophylline 2 mM
[3] = input ligand: tryptophan 2.4 mM

Sequence | apparent KD of MS2 coat protein (input ligand: arginine 13.2 mM) | apparent KD of MS2 coat protein (input ligand: none) | apparent KD of MS2 coat protein [1] | apparent KD of MS2 coat protein [2] | apparent KD of MS2 coat protein [3]
AGGGAAUGAAUAGAAUGAGAUGACACAGAAGGAGCGCCGAUUAAGGCAGGUAGGUCGCUGACAACAUGAGGAUCACCCAUGUUAA [#11 Same State - Arginine A] | 0.00873 µM | 0.017 µM | 0.0141 µM | 0.0175 µM | 0.0206 µM
AGUAACAUGAGGAUCACCCAUGUAUGAGAAGGAGCGUGUUUUAACACAGGUAGGUCGCUCAAUAUUAAUUUAUUAGAUACAUUUA [JR_SSArginiA_Sub006] | 0.0189 µM | 0.027 µM | 0.0451 µM | 0.0368 µM | 0.0343 µM
AGUACAUGAGGAUCACCCAUGUGCCGGUAACGAGGACCGGUACGGCCGCCACUCGAUGUACCUCAAUUUGAUUGAGAUAAGAAAA [Anorbian] | 0.0342 µM |  | 0.0576 µM | 0.0474 µM | 
AGUAUCAGUGGAAGGAGCGUCGCGAAUGCCACAUGAGGAUCACCCAUGUCGCCUUGAGCGCGACAGGUAGGUCGCCACGGUAGGC [SS-ArgB3] | 0.0532 µM | 0.208 µM | 0.174 µM | 0.338 µM | 0.14 µM
AGUAUUGGAAACAGUACUAGUGAUCCGGUCCGAGGACCGGUACGGCCGCCACUCGAUUUAAAUAAACAUGAGGAUCACCCAUGUA [Ex Tryptophan A 14] | 0.0158 µM |  | 0.0172 µM | 0.0165 µM | 
AGUCACAUGAGGAUCACCCAUGUGCCAGAACGAGGACCGGUACGGCCGCCACUCGAGGCGUCCGUCGACAAUAAUGUGAACUGCA [theeternabot_sameState_MS2_Trp_A_48] | 0.0111 µM |  | 0.0167 µM | 0.0116 µM | 
AGUCUGGACUCGGCCGCCACUCGUGAUGCUUUGGCACAUGAGGAUCACCCAUGUGGUCGGCCUUAGAGGACCGGGAGUACCAGUC [Ariaredle] | 0.0523 µM |  | 0.0849 µM | 0.0635 µM | 
AGUCUUAUAGGAAGGAGCGCAAUCAUCACAUGAGGAUCACCCAUGUCAAGGUGAGAGUCAUUGCAGGUAGGUCGCCUAACUAAGA [Same State - Arginine B (Freestyle 9)] | 0.15 µM | 0.241 µM | 0.173 µM | 0.251 µM | 0.213 µM
AGUGUUAUAACUGAUACCAGACCUUUGCUUAUACAUGAGGAUCACCCAUGUAAAAUGGCGGUCCCUUGGCAGCAGAGAAUACGCA [#09 Same State - Theophylline B] | 0.0522 µM |  | 0.057 µM |  | 0.0601 µM
AGUUGACGAAAGUCAGCAACAUGAUCCGAAGGAGCGGGCGAAAGCCCAGGUAGGUCGCGGACAUGAGGAUCACCCAUGUCUCCUU [MAT - Exclusion Arginine A - Mod of Eli - D12] | 0.0378 µM | 0.0734 µM | 0.0788 µM | 0.0926 µM | 0.0707 µM
AUAACAUGAGGAUCACCCAUGUAACCUGAAGGAGCGGACGAAAGUCCAGGUAGGUCGCAGGACUCCUUCAACAUGGGAGAGGGAG [SSArg-A #27 NuPack the Brourd] | 0.12 µM | 0.099 µM | 0.131 µM | 0.152 µM | 0.124 µM
AUAACAUGAGGAUCACCCAUGUAAGCAGAUACCAGCUAGGAAACUAGCCCUUGGCAGCUGCAUAGUGAUCCAUAUAUCUGCUAAU [(M1)-(M2)-(T1)-(T2)-(M)'-(T)'_Design8] | 0.0406 µM |  | 0.0805 µM |  | 0.0592 µM
AUAACUGCCAAGGAUCAUGGGUGAGCAGAUACCAGCUAGGAAACUAGCCCUUGGCAGCUGCAACAUGAGGAUCACCCAUGUAAUA [(T)'-(M)'-(T1)-(T2)-(M1)-(M2)_Design8] | 0.0385 µM | 0.147 µM | 0.0838 µM | 0.119 µM | 0.0904 µM
AUAAGUAAGUUUUCGUGUUUUAUUACAGAUACCAGACUAUACGUUGUCCCUUGGCAGCUGGAUUACAUGAGGAUCACCCAUGUUG [#25 Exclusion-TheophyllineA] | 0.019 µM |  | 0.0339 µM |  | 0.0239 µM
AUAAGUGUAAGAUACCGCACGCUGGAGGAAGGAGCGCGGAUUAACGCAGGUAGGUCGCCUCGUACAUGAGGAUCACCCAUGUGGC [#14 Same State - Arginine A] | 0.0417 µM | 0.0225 µM | 0.0415 µM | 0.0387 µM | 0.0352 µM
AUACAUGAGGAUCACCCAUGUAUAGUCGAUACCAGCUCAAGGAAGAGCCCUUGGCAGCGACACUGGUAUCCAUGGGUGAUACCAG [(Ms2)-(Theo)-(T)'-(M)'-(T)''_Design4] | 0.0178 µM |  | 0.0364 µM |  | 0.0193 µM
AUACAUGAGGAUCACCCAUGUCACACAGAAGGAGCGGCUGUAGAGCCAGGUAGGUCGCUGUACUCAAAAUACUUCAUACUCAUGU [JR_Nu_ExcArginiA_Sub033] | 0.0349 µM | 0.033 µM | 0.0347 µM | 0.037 µM | 0.0275 µM
AUACAUGAGGAUCACCCAUGUCAUUCAGAAGGAGCGUCAUUUUAGACAGGUAGGUCGCUGAUAUUAUUCUUAUACUUUAUGUUUA [JR_ExcArginiA_Sub022] | 0.021 µM | 0.0177 µM | 0.026 µM | 0.0195 µM | 0.0202 µM
AUACAUGAGGAUCACCCAUGUGAUGGCCGGCGAGGACCGGUACGGCCGCCACUCGUGAUCCGUCCUGAGAGCAAAGCUCUCAGCA [Macete] | 0.076 µM | 0.141 µM | 0.258 µM | 0.292 µM | 0.337 µM

Sequence | apparent KD of MS2 coat protein (input ligand: arginine 13.2 mM) | apparent KD of MS2 coat protein (input ligand: none) | apparent KD of MS2 coat protein [1] | apparent KD of MS2 coat protein [2] | apparent KD of MS2 coat protein [3]
AUACAUGAGGAUCACCCAUGUUAUAGUGAAGGAGCGACAUUUAUGUCAGGUAGGUCGCACUAUUGUUUAAUGAUUCUUGGAUCUU [JR_ExcArginiA_Sub017] | 0.0169 µM | 0.0152 µM | 0.0224 µM | 0.0151 µM | 0.0185 µM
AUAGUCUAGAGUGAUACCAGACUACAUGAGGAUCACCCAUGUAUCUUUUGGUUAUCAUGUGUCCCUUGGCAGCACGCAUGUAUAG [JR_ExcTheophyB_Sub013] | 0.0113 µM |  | 0.0124 µM |  | 0.00994 µM
AUCAUAAUAGCCUCGUGUAAUUAAAUGGAACGAGGACCGGUACGGCCGCCACUCGAUAUAAACAUGAGGAUCACCCAUGUAAGCA [JR_ExcTryptoA_Sub004] | 0.0305 µM |  | 0.0441 µM | 0.0582 µM | 
AUCCCGUGAGCGGCCGCCACUGGAGGCUUUGCGCGACAUGAGGAUCACCCAUGUGUGCCCGGCGUUAGGACCGGGUUCGCGUGGA [#1 Same State - Tryptophan B Attempt #17 (HarryS)] | 0.0293 µM | 0.0256 µM | 0.0713 µM | 0.0651 µM | 0.034 µM
AUCGCACCUGGUGAUACCAGCGUUUGCUCGCGACAUGAGGAUCACCCAUGUGGCCAGUGAUGCCCUUGGCAGCAUGGGCGGUGCA [Same State - Theophylline B (Freestyle 28)] | 0.111 µM |  | 0.412 µM |  | 0.349 µM
AUCGUACCUGAUGAUACCAGCAUGUGAUCAUAACAUGAGGAUCACCCAUGUAAUCAGUGAUGCCCUUGGCAGCAUGAUCGGUACA [Same State - Theophylline B (Freestyle 13)] | 0.0455 µM |  | 0.0796 µM |  | 0.0567 µM
AUCGUACCUGGUGAUACCAGCAAGUGAUUAUAACAUGAGGAUCACCCAUGUAAUCAGUGAUGCCCUUGGCAGCAUAAUCGGUACA [#24 Same State - Theophylline B] | 0.0269 µM |  | 0.0378 µM |  | 0.0267 µM
AUGCCUAGUGGAAGGAGCGAGGGUCUUCCCAACAUGAGGAUCACCCAUGUUCUUUUACACCCUCAGGUAGGUCGCCAUUGGGACA [Tilexete] | 0.0417 µM | 0.0646 µM | 0.107 µM | 0.0476 µM | 0.0828 µM
AUGUCACAUGAGGAUCACCCAUGUAUGGAUACCAGUUUAGUGAAUAACCCUUGGCAGCCAAGGAUGCGACAGAAAUCCGGAAAAC [theeternabot_sameState_MS2_Theo_A_22] | 0.019 µM |  | 0.0266 µM |  | 0.0205 µM
AUUAACAUGAGGAUCACCCAUGUGGCCCACCGAGGACCGGUACGGCCGCCACUCGUCGGAAAGGCUAAAUUUAUGAAGUCCAAAA [theeternabot_sameState_MS2_Trp_A_40] | 0.0186 µM |  | 0.0254 µM | 0.017 µM | 
AUUAAUAAUAUGUAGACGGCGGAGACGAGACGAGGACCGGUACGGCCGCCACUCGUGUUAGUUAACAUGAGGAUCACCCAUGUUA [#10 Tryptophan A Same State] | 0.0112 µM |  | 0.0175 µM | 0.0139 µM | 
AUUCAUGAAAACAUGACAUAGGGAUCACUCCGAGGACCGGUACGGCCGCCACUCGCGAGGAGGCACAUGAGGAUCACCCAUGUUA [SS Tryp A #3] | 0.0368 µM | 0.115 µM | 0.146 µM | 0.18 µM | 0.108 µM
AUUGUGAAGUCGGCCGCCACUGGUUAGUUUAACCUCAUGUAACAUGAGGAUCACCCAUGUAAUGACAGGACCGGGACAAUAGUAA [JR_ExcTryptoB_Sub015] | 0.103 µM |  | 0.126 µM | 0.194 µM | 
AUUUACAUGGUCAUAUAUAUAUCGUCAGAUACCAGACUAGAUAUUGUCCCUUGGCAGCUGUUACAUGAGGAUCACCCAUGUUAUA [JR_Nu_ExcTheophyA_Sub020] | 0.0545 µM |  | 0.113 µM |  | 0.178 µM
AUUUUCGUAGGUUAAAGUUUAGAAACUGAAGGAGCGUGGUAUUACACAGGUAGGUCGCAGAUUUUACAUGAGGAUCACCCAUGUU [JR_ExcArginiA_Sub011] | 0.0149 µM | 0.022 µM | 0.0254 µM | 0.0206 µM | 0.0177 µM
CAAACAUGAGGAUCACCCAUGUAAUCAGAUACCAGUGACGAAAGUCACCCUUGGCAGCUGAGUACAUAUUGGCAGAGGUGUUUGA [EThA NP+V+V2 #7] | 0.0414 µM |  | 0.0942 µM |  | 0.0644 µM
CAAUCAAUCAAUCAAUCAAUCAACCAUGAAGGAGCGUGGGAAACCACAGGUAGGUCGCAUGGAAAACAUGAGGAUCACCCAUGUA [Casablanca] | 0.0221 µM | 0.0309 µM | 0.0452 µM | 0.0364 µM | 0.0292 µM
CACAUGAGGAUCACCCAUGUCUGAACUGAAGGAGCGCUAAACAAGGCAGGUAGGUCGCGGAAUUUUGUGUGCAUAUGCACAUGGG [9.O] | 0.0197 µM | 0.0282 µM | 0.0223 µM | 0.0246 µM | 0.0258 µM

Reference: the supplement of paper PMC9170038
